Target: GST-KLF2 (UniProt Q60843 1-354)
Experiment: EMSA

Sequence of GST-KLF2 (Q60843 whole entry): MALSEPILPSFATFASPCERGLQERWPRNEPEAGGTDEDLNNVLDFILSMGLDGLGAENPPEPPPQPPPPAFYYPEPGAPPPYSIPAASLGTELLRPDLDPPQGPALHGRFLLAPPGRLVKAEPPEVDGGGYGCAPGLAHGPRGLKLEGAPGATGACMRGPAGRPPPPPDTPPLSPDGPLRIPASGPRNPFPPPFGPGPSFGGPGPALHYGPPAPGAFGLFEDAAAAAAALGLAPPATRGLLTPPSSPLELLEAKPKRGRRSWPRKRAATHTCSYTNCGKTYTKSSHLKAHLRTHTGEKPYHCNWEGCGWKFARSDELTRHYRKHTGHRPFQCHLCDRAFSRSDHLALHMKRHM

B1: eNOS promoter KLF site (-644 to -652) probe (dsDNA)
DNA 1: GTCATGGGGGTGTGGGGGTTCCAGGAAAT
DNA 2: ATTTCCTGGAACCCCCACACCCCCATGAC
binding result: binds
